Results from patent US20250145711A1 (Janssen / Centocor, published 2025).

Tests used:
[1] = biological target: T1, human PSMA on prostate cancer cell lines (22RV1, C4-2B) (human, UniProt Q04609 1-750); assay: flow cytometry on C4-2B cells
T1 construct: also called PSMA-expressing cell lines
Experimental: (§1) 22RV1 and C4-2B cells were plated at 50,000 cells per well in 50 μl of assay medium (RPMI, 10% HI FBS) in V bottom plates. Serial dilutions of antibodies were prepared in assay medium with 50 μl of antibody dilutions added to the plates containing cells. The plates were incubated for 60 min at 37° C. at which time 100 μl of staining buffer (Becton Dickinson Cat #554657) was added to all wells of each plate. The plates were centrifuged at 300×G for 5 minutes and the medium was removed from the wells. 200 μl of staining buffer was added to all wells of each plate. The plates were centrifuged at 300× G for 5 minutes and the medium was removed from the wells. 50 μl of 2 μg/ml AlexaFluor647-labeled goat anti-human Fc was added to all wells of the plates and the plates were incubated for 30 minutes at 4° C. 150 μl of staining buffer was added to all wells of each plate. The plates were centrifuged at 300× G for 5 minutes and the medium was removed from the wells.

recombinant human PSMA = biological target: T2, recombinant human PSMA (human, UniProt Q04609 44-750); assay: SPR (Biacore 8K), antibody captured on anti-Fc, PSMA in solution
T2 construct: also called hu PSMA; prostate-specific membrane antigen
T2 sequence (Q04609 44-750 limits assumed): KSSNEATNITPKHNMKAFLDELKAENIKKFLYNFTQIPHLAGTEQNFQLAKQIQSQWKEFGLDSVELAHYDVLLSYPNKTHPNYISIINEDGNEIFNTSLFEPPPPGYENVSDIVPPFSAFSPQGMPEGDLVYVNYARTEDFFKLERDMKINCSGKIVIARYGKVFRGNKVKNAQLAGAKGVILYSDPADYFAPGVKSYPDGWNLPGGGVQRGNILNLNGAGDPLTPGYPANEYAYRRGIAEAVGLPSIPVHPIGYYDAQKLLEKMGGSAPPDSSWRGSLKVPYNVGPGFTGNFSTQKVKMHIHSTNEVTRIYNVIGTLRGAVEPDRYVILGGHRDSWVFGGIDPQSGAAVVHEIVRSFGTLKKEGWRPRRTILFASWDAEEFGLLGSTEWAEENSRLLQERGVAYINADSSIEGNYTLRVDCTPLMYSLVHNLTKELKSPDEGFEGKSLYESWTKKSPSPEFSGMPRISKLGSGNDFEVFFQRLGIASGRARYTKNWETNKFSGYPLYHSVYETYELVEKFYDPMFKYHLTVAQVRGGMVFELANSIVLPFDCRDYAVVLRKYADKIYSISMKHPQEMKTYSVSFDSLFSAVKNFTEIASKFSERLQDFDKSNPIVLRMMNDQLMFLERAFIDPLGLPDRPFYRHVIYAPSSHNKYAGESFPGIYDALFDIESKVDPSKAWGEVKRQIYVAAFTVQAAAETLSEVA
Experimental: The binding affinity of anti-PSMA to the recombinant human, cynomolgus or mouse PSMA was determined by surface plasmon resonance (SPR) using a Biacore 8K instrument\. […] The association and dissociation were monitored for 3 and 15 minutes, respectively, using a flow rate of 50 μL/min. Raw binding data was referenced by subtracting the analyte binding signals from blanks and analyzed using a 1:1 Langmuir binding model using the Biacore Insight evaluation software to obtain the kinetics which were used to calculate the binding affinity. The anti-PSMA were captured using an anti-human Fc antibody and the antigens were injected in solution.

[2] = biological target: T1, human PSMA on prostate cancer cell …; assay: flow cytometry on 22RV1 cells
Experimental: as §1

T1 sequence (Q04609 whole entry): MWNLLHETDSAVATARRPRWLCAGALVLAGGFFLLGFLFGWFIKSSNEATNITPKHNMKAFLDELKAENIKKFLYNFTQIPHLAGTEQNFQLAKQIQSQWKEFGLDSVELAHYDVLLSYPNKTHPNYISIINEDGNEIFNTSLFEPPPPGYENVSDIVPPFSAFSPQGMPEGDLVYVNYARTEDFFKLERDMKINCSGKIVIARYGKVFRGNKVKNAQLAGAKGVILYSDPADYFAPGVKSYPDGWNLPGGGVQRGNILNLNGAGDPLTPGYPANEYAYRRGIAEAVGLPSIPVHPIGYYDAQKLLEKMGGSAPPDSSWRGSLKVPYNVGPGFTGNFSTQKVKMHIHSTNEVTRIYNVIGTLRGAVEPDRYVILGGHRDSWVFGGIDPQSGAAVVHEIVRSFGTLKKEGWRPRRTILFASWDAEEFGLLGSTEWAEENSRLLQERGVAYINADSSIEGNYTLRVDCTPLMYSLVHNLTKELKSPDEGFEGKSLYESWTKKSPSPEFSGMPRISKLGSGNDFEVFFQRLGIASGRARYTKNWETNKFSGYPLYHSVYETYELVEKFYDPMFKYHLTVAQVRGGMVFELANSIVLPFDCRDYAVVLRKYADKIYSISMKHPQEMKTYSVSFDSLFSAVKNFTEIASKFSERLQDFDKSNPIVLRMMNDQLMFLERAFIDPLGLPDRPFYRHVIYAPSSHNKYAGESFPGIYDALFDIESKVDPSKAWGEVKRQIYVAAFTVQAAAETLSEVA

EC50 [1] [nM] | Kd (recombinant human PSMA) [nM] | EC50 [2] [nM] | Binder
60 | 0.787 | 48.7 | PS3B932 (bispecific antibody, human IgG1, kappa, lambda, L234A L235A, FAB-A: CD3B2183 (CD3W245); FAB-B: PSMB895) heavy 1: EVQLVESGGGLVKPGGSLRLSCAASGFTFSRYNMNWVRQAPGKGLEWVSSISTSSNYIYYADSVKGRFTFSRDNAKNSLDLQMSGLRAEDTAIYYCTRGWGPFDYWGQGTLVTVSSASTKGPSVFPLAPSSKSTSGGTAALGCLVKDYFPEPVTVSWNSGALTSGVHTFPAVLQSSGLYSLSSVVTVPSSSLGTQTYICNVNHKPSNTKVDKKVEPKSCDKTHTCPPCPAPEAAGGPSVFLFPPKPKDTLMISRTPEVTCVVVSVSHEDPEVKFNWYVDGVEVHNAKTKPREEQYNSTYRVVSVLTVLHQDWLNGKEYKCKVSNKALPAPIEKTISKAKGQPREPQVYTLPPSREEMTKNQVSLTCLVKGFYPSDIAVEWESNGQPENNYKTTPPVLDSDGSFLLYSKLTVDKSRWQQGNVFSCSVMHEALHNHYTQKSLSLSP light 1: DIQMTQSPSSLSASVGDRVTITCRARQSIGTAIHWYQQKPGKAPKLLIKYASESISGVPSRFSGSGSGTDFTLTISSLQPEDFATYYCQQSGSWPYTFGQGTKLEIKRTVAAPSVFIFPPSDEQLKSGTASVVCLLNNFYPREAKVQWKVDNALQSGNSQESVTEQDSKDSTYSLSSTLTLSKADYEKHKVYACEVTHQGLSSPVTKSFNRGEC heavy 2: EVQLVESGGGLVQPGGSLRLSCAASGFTFSSYAMSWVRQAPGKGLEWVSAISGGIGSTYYADSVKGRFTISRDNSKNTLWLQMNSLRAEDTAVYYCAKDGVGATPYYFDYWGQGTLVTVSSASTKGPSVFPLAPSSKSTSGGTAALGCLVKDYFPEPVTVSWNSGALTSGVHTFPAVLQSSGLYSLSSVVTVPSSSLGTQTYICNVNHKPSNTKVDKKVEPKSCDKTHTCPPCPAPEAAGGPSVFLFPPKPKDTLMISRTPEVTCVVVSVSHEDPEVKFNWYVDGVEVHNAKTKPREEQYNSTYRVVSVLTVLHQDWLNGKEYKCKVSNKALPAPIEKTISKAKGQPREPQVYTLPPSREEMTKNQVSLTCLVKGFYPSDIAVEWESNGQPENNYKTTPPVLDSDGSFFLYSRLTVDKSRWQQGNVFSCSVMHEALHNHYTQKSLSLSPG light 2: QSVLTQPPSVSAAPGQKVTISCSGSSSNIGNNYVSWYQQLPGTAPKLLIYDNNKRPSGIPDRFSGSKSGTSATLGITGLQTGDEADYYCGTWDSSLSAYVFGTGTKVTVLGQPKAAPSVTLFPPSSEELQANKATLVCLISDFYPGAVTVAWKADSSPVKAGVETTTPSKQSNNKYAASSYLSLTPEQWKSHRSYSCQVTHEGSTVEKTVAPTECS
11 | ≤ 0.0873 | 4.96 | PS3B934 (bispecific antibody, human IgG1, kappa, lambda, L234A L235A, FAB-A: CD3B2183 (CD3W245); FAB-B: PSMB896) heavy 1: EVQLVESGGGLVKPGGSLRLSCAASGFTFSRYNMNWVRQAPGKGLEWVSSISTSSNYIYYADSVKGRFTFSRDNAKNSLDLQMSGLRAEDTAIYYCTRGWGPFDYWGQGTLVTVSSASTKGPSVFPLAPSSKSTSGGTAALGCLVKDYFPEPVTVSWNSGALTSGVHTFPAVLQSSGLYSLSSVVTVPSSSLGTQTYICNVNHKPSNTKVDKKVEPKSCDKTHTCPPCPAPEAAGGPSVFLFPPKPKDTLMISRTPEVTCVVVSVSHEDPEVKFNWYVDGVEVHNAKTKPREEQYNSTYRVVSVLTVLHQDWLNGKEYKCKVSNKALPAPIEKTISKAKGQPREPQVYTLPPSREEMTKNQVSLTCLVKGFYPSDIAVEWESNGQPENNYKTTPPVLDSDGSFLLYSKLTVDKSRWQQGNVFSCSVMHEALHNHYTQKSLSLSP light 1: DIQMTQSPSSLSASVGDRVTITCRARQSIGTAIHWYQQKPGKAPKLLIKYASESISGVPSRFSGSGSGTDFTLTISSLQPEDFATYYCQQSGSWPYTFGQGTKLEIKRTVAAPSVFIFPPSDEQLKSGTASVVCLLNNFYPREAKVQWKVDNALQSGNSQESVTEQDSKDSTYSLSSTLTLSKADYEKHKVYACEVTHQGLSSPVTKSFNRGEC heavy 2: EVQLVESGGGLVQPGGSLRLSCAASGFTFSSYAMSWVRQAPGKGLEWVSAISGGIGSTYYADSVKGRFTISRDNSKNTLWLQMNSLRAEDTAVYYCAKDGVGATPYYFDYWGQGTLVTVSSASTKGPSVFPLAPSSKSTSGGTAALGCLVKDYFPEPVTVSWNSGALTSGVHTFPAVLQSSGLYSLSSVVTVPSSSLGTQTYICNVNHKPSNTKVDKKVEPKSCDKTHTCPPCPAPEAAGGPSVFLFPPKPKDTLMISRTPEVTCVVVSVSHEDPEVKFNWYVDGVEVHNAKTKPREEQYNSTYRVVSVLTVLHQDWLNGKEYKCKVSNKALPAPIEKTISKAKGQPREPQVYTLPPSREEMTKNQVSLTCLVKGFYPSDIAVEWESNGQPENNYKTTPPVLDSDGSFFLYSRLTVDKSRWQQGNVFSCSVMHEALHNHYTQKSLSLSPG light 2: QSVLTQPPSVSAAPGQKVTISCSGSSSNIGINYVSWYQQLPGTAPKLLIYDNNKRPSGIPDRFSGSKSGTSATLGITGLQTGDEADYYCGTWDSSLSAVVFGGGTKLTVLGQPKAAPSVTLFPPSSEELQANKATLVCLISDFYPGAVTVAWKADSSPVKAGVETTTPSKQSNNKYAASSYLSLTPEQWKSHRSYSCQVTHEGSTVEKTVAPTECS
60 | 1.44 | 60 | PS3B933 (bispecific antibody, human IgG1, kappa, lambda, L234A L235A, FAB-A: CD3B2183 (CD3W245); FAB-B: PSMB897) heavy 1: EVQLVESGGGLVKPGGSLRLSCAASGFTFSRYNMNWVRQAPGKGLEWVSSISTSSNYIYYADSVKGRFTFSRDNAKNSLDLQMSGLRAEDTAIYYCTRGWGPFDYWGQGTLVTVSSASTKGPSVFPLAPSSKSTSGGTAALGCLVKDYFPEPVTVSWNSGALTSGVHTFPAVLQSSGLYSLSSVVTVPSSSLGTQTYICNVNHKPSNTKVDKKVEPKSCDKTHTCPPCPAPEAAGGPSVFLFPPKPKDTLMISRTPEVTCVVVSVSHEDPEVKFNWYVDGVEVHNAKTKPREEQYNSTYRVVSVLTVLHQDWLNGKEYKCKVSNKALPAPIEKTISKAKGQPREPQVYTLPPSREEMTKNQVSLTCLVKGFYPSDIAVEWESNGQPENNYKTTPPVLDSDGSFLLYSKLTVDKSRWQQGNVFSCSVMHEALHNHYTQKSLSLSP light 1: DIQMTQSPSSLSASVGDRVTITCRARQSIGTAIHWYQQKPGKAPKLLIKYASESISGVPSRFSGSGSGTDFTLTISSLQPEDFATYYCQQSGSWPYTFGQGTKLEIKRTVAAPSVFIFPPSDEQLKSGTASVVCLLNNFYPREAKVQWKVDNALQSGNSQESVTEQDSKDSTYSLSSTLTLSKADYEKHKVYACEVTHQGLSSPVTKSFNRGEC heavy 2: EVQLVESGGGLVQPGGSLRLSCAASGFTFSSYAMSWVRQAPGKGLEWVSAISGGSGSTYYADSVKGRFTISRDNSKNTLYLQMNSLRAEDSAVYYCAKDGVGATPYYFDYWGQGTLVTVSSASTKGPSVFPLAPSSKSTSGGTAALGCLVKDYFPEPVTVSWNSGALTSGVHTFPAVLQSSGLYSLSSVVTVPSSSLGTQTYICNVNHKPSNTKVDKKVEPKSCDKTHTCPPCPAPEAAGGPSVFLFPPKPKDTLMISRTPEVTCVVVSVSHEDPEVKFNWYVDGVEVHNAKTKPREEQYNSTYRVVSVLTVLHQDWLNGKEYKCKVSNKALPAPIEKTISKAKGQPREPQVYTLPPSREEMTKNQVSLTCLVKGFYPSDIAVEWESNGQPENNYKTTPPVLDSDGSFFLYSRLTVDKSRWQQGNVFSCSVMHEALHNHYTQKSLSLSPG light 2: QSVLTQPPSVSAAPGQKVTISCSGSSSNIGNNYVSWYQQLPGTAPKLLIYDNNKRPSGIPDRFSGSKSGTSATLGITGLQTGDEADYYCGTWDSSLSAYVFGTGTKVTVLGQPKAAPSVTLFPPSSEELQANKATLVCLISDFYPGAVTVAWKADSSPVKAGVETTTPSKQSNNKYAASSYLSLTPEQWKSHRSYSCQVTHEGSTVEKTVAPTECS
11.7 | 0.169 | 21.2 | PS3B925 (bispecific antibody, human IgG1, kappa, lambda, L234A L235A, FAB-A: CD3B2183 (CD3W245); FAB-B: PSMB899) heavy 1: EVQLVESGGGLVKPGGSLRLSCAASGFTFSRYNMNWVRQAPGKGLEWVSSISTSSNYIYYADSVKGRFTFSRDNAKNSLDLQMSGLRAEDTAIYYCTRGWGPFDYWGQGTLVTVSSASTKGPSVFPLAPSSKSTSGGTAALGCLVKDYFPEPVTVSWNSGALTSGVHTFPAVLQSSGLYSLSSVVTVPSSSLGTQTYICNVNHKPSNTKVDKKVEPKSCDKTHTCPPCPAPEAAGGPSVFLFPPKPKDTLMISRTPEVTCVVVSVSHEDPEVKFNWYVDGVEVHNAKTKPREEQYNSTYRVVSVLTVLHQDWLNGKEYKCKVSNKALPAPIEKTISKAKGQPREPQVYTLPPSREEMTKNQVSLTCLVKGFYPSDIAVEWESNGQPENNYKTTPPVLDSDGSFLLYSKLTVDKSRWQQGNVFSCSVMHEALHNHYTQKSLSLSP light 1: DIQMTQSPSSLSASVGDRVTITCRARQSIGTAIHWYQQKPGKAPKLLIKYASESISGVPSRFSGSGSGTDFTLTISSLQPEDFATYYCQQSGSWPYTFGQGTKLEIKRTVAAPSVFIFPPSDEQLKSGTASVVCLLNNFYPREAKVQWKVDNALQSGNSQESVTEQDSKDSTYSLSSTLTLSKADYEKHKVYACEVTHQGLSSPVTKSFNRGEC heavy 2: EVQLVESGGGLVQPGGSLRLSCTASGFIFSSYAMSWVRQAPGKGLEWVSAISGGYGAPYYADTVKGRFTISRDNSKNTLYLQMNSLRAEDTAVYYCAKDGVGATPYYFDDWGQGILVTVSSASTKGPSVFPLAPSSKSTSGGTAALGCLVKDYFPEPVTVSWNSGALTSGVHTFPAVLQSSGLYSLSSVVTVPSSSLGTQTYICNVNHKPSNTKVDKKVEPKSCDKTHTCPPCPAPEAAGGPSVFLFPPKPKDTLMISRTPEVTCVVVSVSHEDPEVKFNWYVDGVEVHNAKTKPREEQYNSTYRVVSVLTVLHQDWLNGKEYKCKVSNKALPAPIEKTISKAKGQPREPQVYTLPPSREEMTKNQVSLTCLVKGFYPSDIAVEWESNGQPENNYKTTPPVLDSDGSFFLYSRLTVDKSRWQQGNVFSCSVMHEALHNHYTQKSLSLSPG light 2: QSVLTQPPSVSAAPGQKVTISCSGSSSNIGNNYVSWYQQLPGTAPKLLIFDNNKRPSGIPDRFSGSKSGTSATLGITGLQTGDEADYYCGTWDSSLSAYVFGTGTKVTVLGQPKAAPSVTLFPPSSEELQANKATLVCLISDFYPGAVTVAWKADSSPVKAGVETTTPSKQSNNKYAASSYLSLTPEQWKSHRSYSCQVTHEGSTVEKTVAPTECS
